Measurements from article PMC9608704.
Several values for one entry are separate records, joined by “and”; a condition that tells them apart may be missing. Identical values can stand only once.

Target: HLA-B*2704 heavy chain (human)
Test: non-reducing SDS-PAGE with Western blot; cell surface proteins of C1R-B*2704 or C1R-B*2704 C67S cells biotinylated, extracted in the presence of iodoacetamide, precipitated by avidin-agarose beads, separated by non-reducing SDS-PAGE and blotted with the BH2 antibody; disulfide-linked oligomers judged by mobility

For “HLA-B*2704 heavy chain (natural protein)”, the stoichiometry N was 2 and 4.
